The experiment concerns the target T1, Mas70p (S. cerevisiae (endogenous in yeast …, UniProt P07213 1-617)).
T1 sequence (looked up): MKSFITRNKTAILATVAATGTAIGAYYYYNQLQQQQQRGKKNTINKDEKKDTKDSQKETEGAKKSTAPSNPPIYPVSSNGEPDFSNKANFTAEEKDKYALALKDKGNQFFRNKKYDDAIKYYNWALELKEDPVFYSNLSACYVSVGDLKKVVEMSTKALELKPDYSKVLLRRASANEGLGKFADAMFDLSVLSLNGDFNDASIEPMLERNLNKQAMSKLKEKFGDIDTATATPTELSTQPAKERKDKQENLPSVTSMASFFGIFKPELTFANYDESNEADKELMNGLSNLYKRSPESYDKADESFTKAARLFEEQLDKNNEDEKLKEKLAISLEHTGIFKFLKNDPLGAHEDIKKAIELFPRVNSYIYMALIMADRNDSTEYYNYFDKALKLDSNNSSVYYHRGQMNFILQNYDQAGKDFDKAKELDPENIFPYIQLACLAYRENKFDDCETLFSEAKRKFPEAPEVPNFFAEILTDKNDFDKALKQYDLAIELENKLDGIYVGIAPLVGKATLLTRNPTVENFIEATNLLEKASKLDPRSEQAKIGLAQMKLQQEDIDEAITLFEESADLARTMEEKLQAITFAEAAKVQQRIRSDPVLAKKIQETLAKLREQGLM
Kind of experiment: co-IP.

B1: Mas37p (natural protein)
chain: MVKGSVHLWGKDGKASLISVDSIALVWFIKLCTSEEAKSMVAGLQIVFSNNTDLSSDGKLPVLILDNGTKVSGYVNIVQFLHKNICTSKYEKGTDYEEDLAIVRKKDRLLEYSLLNYVDVEISRLTDYQLFLNTKNYNEYTKKLFSKLLYFPMWYNTPLQLRSQARENCEEIIGSLTLEDDEEFVESKAMESASQLAQSKTFKIAHKNKIKGKQELQQVKYNLQFDNRLQSCVSNWLAARKKLDDSVILSSDLLFLANLYVQLGLPDGNRIRSKLEQTFGSELLNSMSNKIDDFVHRPSNNLEQRDPQFREQGNVVMSLYNLACKYI
Take B1: the “stoichiometry N” value was found to be 1 mol Mas37p per mol Mas70p.

The term stoichiometry N denotes the number of molecules, sites or subunits per partner or assembly.

The values are drawn from paper PMC2120374 (The Journal of Cell Biology, 1995).
